Results on two molecules are retold here after patent US20190359711A1.

Assay [1] concerns the target CD3 on human pan T cells (human) (UniProt P07766). The assay is described as follows: Kd derived from the competition IC50: Kd=IC50/(1+([T]/KdT)); human pan T cells.
Assay [2] has the same target. Briefly: flow cytometry competition on human pan T cells; competitor tracer AlexaFluor488 SP34-2 at 16.6 nM. For orientation: Flow cytometry measures light scatter and fluorescence of single cells or particles in a stream.

Numbering of substitutions follows the chain as printed.

CD3 on human pan T cells (human), sequence (P07766 23-207 limits assumed): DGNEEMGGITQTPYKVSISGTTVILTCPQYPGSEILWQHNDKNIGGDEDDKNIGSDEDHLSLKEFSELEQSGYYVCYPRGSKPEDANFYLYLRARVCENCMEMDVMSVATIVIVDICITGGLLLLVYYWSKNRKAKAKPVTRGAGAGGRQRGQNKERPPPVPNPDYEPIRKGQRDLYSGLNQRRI

B1: CD3B376 monovalent construct (bispecific antibody, part only; not given: second arm, constant regions, V domains shown, not shown: another chain or arm of the molecule; a dimerising Fc or GST)
VH: QVQLQQSGPRLVRPSQTLSLTCAISGDSVFNNNAAWSWIRQSPSRGLEWLGRTYYRSKWLYDYAVSVKSRITVNPDTSRNQFTLQLNSVTPEDTALYYCARGYSSSFDYWGQGTLVTVSS
VL: QSALTQPASVSGSPGQSITISCTGTSSNIGTYKFVSWYQQHPDKAPKVLLYEVSKRPSGVSSRFSGSKSGNTASLTISGLQAEDQADYHCVSYAGSGTLLFGGGTKLTVL
With B1, the equilibrium dissociation constant (Kd) in assay [1] is 103 nM. The half-inhibitory concentration (IC50) in assay [2] came out at 409 nM.

B2: CD3B450 monovalent construct (bispecific antibody, part only; not given: second arm, constant regions, V domains shown, not shown: another chain or arm of the molecule; a dimerising Fc or GST)
VH: B1 VH with R10G, R13K, V73I, R79K, T83S, L96V
VL: B1 VL with D43G, L49M, L50I, S62N, Q85E, H89Y
As to B2, the Kd in assay [1] came to 254 nM. Further, the IC50 in assay [2] turned out to be 1010 nM.

What is called Kd is a measure of binding affinity in units of concentration. Higher therefore signals a looser complex. By IC50 is commonly meant the concentration that gives 50% inhibition.
